The source of these data is publication PMC11894413, “The conformational landscape of TRiC ring-opening and its underlying stepwise mechanism revealed by cryo-EM” (QRB Discovery, 2024).

Data set [1] deals with the molecule itself. Kind of data set: cryo-EM structure; purified yeast TRiC, 1 mg/ml, with 1 mM ADP and 5 mM MgCl2, 15 min at 30 °C before freezing; five conformational states S1-S5 (closed to open) from one sample; contacts differ between the states.
For data set [2], the target named is T1, CCT4 subunit of yeast TRiC/CCT (yeast, UniProt P39078 1-528).
T1 construct: CCT4 subunit of the chaperonin TRiC/CCT, yeast; subunit of the purified hetero-oligomeric complex; Purified according to Zang et al., 2016; source: endogenous, purified from yeast lysate as part of TRiC (calmodulin resin, eluted with 2 mM EGTA)
T1 sequence (P39078 whole entry): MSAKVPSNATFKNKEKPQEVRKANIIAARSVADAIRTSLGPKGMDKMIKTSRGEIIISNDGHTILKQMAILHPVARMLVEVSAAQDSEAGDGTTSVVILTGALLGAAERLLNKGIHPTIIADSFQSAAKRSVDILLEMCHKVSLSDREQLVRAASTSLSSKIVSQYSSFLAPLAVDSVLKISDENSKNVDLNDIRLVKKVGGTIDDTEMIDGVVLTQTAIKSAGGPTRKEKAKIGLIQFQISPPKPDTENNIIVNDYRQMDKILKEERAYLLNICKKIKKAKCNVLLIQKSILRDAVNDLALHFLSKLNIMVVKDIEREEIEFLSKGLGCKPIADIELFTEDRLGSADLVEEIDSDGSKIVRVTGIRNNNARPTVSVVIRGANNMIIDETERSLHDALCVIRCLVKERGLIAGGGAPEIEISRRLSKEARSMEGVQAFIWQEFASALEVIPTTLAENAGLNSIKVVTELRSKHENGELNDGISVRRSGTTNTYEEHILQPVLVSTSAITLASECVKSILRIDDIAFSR
Described as above. Particulars: both partners purified.

B1: CCT6 subunit of yeast TRiC/CCT (natural protein)
chain: not shown
notes: CCT6 subunit of the chaperonin TRiC/CCT, yeast; subunit of the purified hetero-oligomeric complex; Purified according to Zang et al., 2016; source: endogenous, purified from yeast lysate as part of TRiC (calmodulin resin, eluted with 2 mM EGTA)
For the molecule B1, in data set [1], the binding result is listed as “binds”.

B2: CCT2 subunit of yeast TRiC/CCT (natural protein, UniProt P39076 1-527, looked up)
chain: MSVQIFGDQVTEERAENARLSAFVGAIAVGDLVKSTLGPKGMDKLLQSASSNTCMVTNDGATILKSIPLDNPAAKVLVNISKVQDDEVGDGTTSVTVLSAELLREAEKLIDQSKIHPQTIIEGYRLASAAALDALTKAAVDNSHDKTMFREDLIHIAKTTLSSKILSQDKDHFAELATNAILRLKGSTNLEHIQIIKILGGKLSDSFLDEGFILAKKFGNNQPKRIENAKILIANTTLDTDKVKIFGTKFKVDSTAKLAQLEKAEREKMKNKIAKISKFGINTFINRQLIYDYPEQLFTDLGINSIEHADFEGVERLALVTGGEVVSTFDEPSKCKLGECDVIEEIMLGEQPFLKFSGCKAGEACTIVLRGATDQTLDEAERSLHDALSVLSQTTKETRTVLGGGCAEMVMSKAVDTEAQNIDGKKSLAVEAFARALRQLPTILADNAGFDSSELVSKLRSSIYNGISTSGLDLNNGTIADMRQLGIVESYKLKRAVVSSASEAAEVLLRVDNIIRARPRTANRQHM
notes: CCT2 subunit of the chaperonin TRiC/CCT, yeast; subunit of the purified hetero-oligomeric complex; Purified according to Zang et al., 2016; source: endogenous, purified from yeast lysate as part of TRiC (calmodulin resin, eluted with 2 mM EGTA)
Consider B2, for which the binding result in data set [2] and in data set [1] was “binds” throughout.
